{"source": "patent US12534533B2", "about": "“Anti-chemokine like receptor 1 humanized antibodies and their therapeutic applications” (OSE IMMUNOTHERAPEUTICS, priority 2019, dated 2026)", "molecules": {"B1": {"name": "2G1: parental chimeric anti-CMKLR1 antibody: heavy chain variable domain SEQ ID No. 37, light chain variable domain SEQ ID No. 49 (antibody, V domains shown)", "VH": "EVQLVASGGGLVQPGGSLKLSCAASGFTFSSYGMSWVRQTPDRRLELVATINRYGGSTYYPDSVKGRFTISRDNAKNTLYLQMSSLKSEDTAMYYCPRLIYYGNEGDSWGQGTTLTVSS", "VL": "QIVLTQSPAIMSASPGEKVTMTCSASSSVSFMHWYQQKSGTSPKRWIYDTTKLTSGVPARFSGSGSGTFYSLTISSMEAEDAATYYCQQWNSKPPLTFGPGTKLELKR"}}, "key": {"[1]": {"system": "spontaneous colitis in IL-10KO mice", "assay": "IL10 KO spontaneous chronic inflammatory colitis model", "type": "in vivo", "details": "vs isotype control", "protocol": "FIG. 4. Effect of an anti-CMKLR1 antibody on a IL10 KO mice chronic inflammatory colitis model. Mice KO for IL10 develop a spontaneous inflammatory colitis. They were treated with an Anti-CMKLR1 antibody (2G1) (□) or isotype control (hIgG1) (x) intra-peritoneally (25 μg/injection, 3 times a week). A. Animal weight loss during and after treatment. B. Animal score stool.\nIL-10KO mice develop a spontaneous colitis from 20 weeks of age mostly due to the absence of regulatory T cells function through IL-10 secretion in the intestine. IL-10KO mice were followed-up three times a week from 18-week old for their weight loss and stool consistency which are clinical hallmarks of this pathology."}, "CT26 cells": {"system": "CT26 cells", "assay": "CT26 colon carcinoma model", "type": "in vivo, mice", "details": "20 μg/injection i.p. for 3 weeks from d4; FIG. 9A-C", "protocol": "(§1) FIG. 9. Effect of an anti-CMKLR1 antibody on 2 different colon carcinoma mice models. Two mice models were studied, and animals received isotype control antibody (3G8) (x) or anti-CMKLR1 (2G1) (□) at 20 μg/injection intraperitoneally for 3 weeks. A-C. Results in the CT26 colon carcinoma model comparing single treatment with p84 (A) and 2G1 (B) with combined therapy with both antibodies (C). D: Results in the MC38 colon carcinoma model.\n(§2) 8-week old C57bl/6J male mice were anesthetized with 3% of isoflurane. Mice were shaved on the flank and MC38 cells (0.5·10≢cells/mouse) cell lines were injected subcutaneously with an insulinic syringe (30 Gauges) in 50 μL of PBS. Another model was used, in which 8-week old Balb/c male mice were anesthetized with 3% of isoflurane. Mice were shaved on the flank and CT26 cells (1.10≢cells/mouse) were injected subcutaneously with an insulinic syringe (30 Gauges) in 50 μL of PBS.\n(§3) The agonistic anti-CMKLR1 antibody (2G1) or an anti-SIRPa antibody (p84-anti-mouse SIRPa from Merck Millipore) (SIRPa is a new checkpoint inhibitor) were injected once a week (20 μg/injection) intraperitoneally for 3 weeks starting at d4 after tumor inoculation alone or combined."}, "MC38 cells": {"system": "MC38 cells", "assay": "MC38 colon carcinoma model", "type": "in vivo, mice", "details": "20 μg/injection i.p. for 3 weeks; vs isotype control; FIG. 9D", "protocol": "as §1, §2, §3"}, "[2]": {"molecular_target": "T1, CMKLR1 receptor (CHO-K1 CMKLR1 Gi cells) (Homo sapiens, UniProt Q99788)", "T1 construct": "host or cells: CHO-K1", "T1 sequence (Q99788 1-373)": "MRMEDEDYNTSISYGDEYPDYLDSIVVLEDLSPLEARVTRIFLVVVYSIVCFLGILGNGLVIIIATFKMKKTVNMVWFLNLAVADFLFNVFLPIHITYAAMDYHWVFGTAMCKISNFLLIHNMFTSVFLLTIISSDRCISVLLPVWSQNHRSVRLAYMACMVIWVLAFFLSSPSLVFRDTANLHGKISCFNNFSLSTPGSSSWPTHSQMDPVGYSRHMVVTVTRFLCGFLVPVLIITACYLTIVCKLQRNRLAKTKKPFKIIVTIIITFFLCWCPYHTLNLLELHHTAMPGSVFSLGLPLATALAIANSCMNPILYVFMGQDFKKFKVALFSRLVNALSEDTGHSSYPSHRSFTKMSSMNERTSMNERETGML", "assay": "competition with Chemerin in the production of cAMP by CMKLR1 receptor", "type": "cell-based", "details": "antibody 1 μM to 1 nM, chemerin 2 nM; FIG. 18A", "protocol": "The day before the experiment CHO-K1 CMKLR1 Gi cells (Discover'X ref 95-0080C2) were plated in pre-warmed cell reagent then plated in a 96-well plate at 100 μl/well of cells as (Discover'X ref 15-103) and incubated 24 hours at 37° C., in a 5% CO2 humidified incubator for 24 hours.\nFor the detection cAMP, antibody reagent and cAMP working detection solution was added to the plate for 1 hour at room temperature, then cAMP solution A was added, and cells incubated 3 hours at room temperature in the dark. Bioluminescence was read with a plate reader with 0.5s integration."}, "4T1 cells": {"system": "4T1 cells", "assay": "orthotopic mammary carcinoma model (4T1)", "type": "in vivo, mice", "protocol": "FIG. 8. Effect of an anti-CMKLR1 antibody on a 4T1 breast tumor model. Mice were inoculated with 4T1 cells (0.25 million) in the mammary gland. Then the anti-CMKLR1 antibody (2G1) (A. […]B. ●) or an anti-41BB antibody (3H3) (●) or both antibodies (▴) were injected twice at day 4 and day 7 (10 μg/injection) or a control antibody (IgG1 isotype antibody clone 3G8) (x A. and B.) was injected three time a week for three weeks. A. The tumor area was measured 8 days after tumor injection and then every 2 days. B. Tumor lung metastasis was measured by Bioluminescence imaging (BLI) in animals treated with isotype control and anti-CMKLR1 antibody (n=4).\nMice were anesthetized with 3% of isoflurane. Mice were shaved on the abdomen and 4T1 cells (0.25 millions) were injected in the mammary gland with an insulinic syringe (30 Gauges) in 50 μL of PBS. The anti-CMKLR1 antibody (2G1) or an anti-41BB antibody (3H3) or both antibodies were injected twice at day 4 and day 7 (10 μg/injection); a control antibody was injected three times a week for three weeks intraperitoneally in PBS (100 μg/injection). In a second study to measure the lung metastasis following mammary carcinoma development, animals were treated with anti-CMKLR1 antibody at 0.8 mg/kg or control antibody (100 μg/injection) three times a week for three weeks."}, "[3]": {"system": "ROS production by PMN from healthy volunteers", "assay": "ROS test in PMN", "type": "cell-based, human", "details": "coated Ab at 10 μg/mL, after 5 h; FIG. 26C", "protocol": "Neutrophils were isolated from blood of healthy volunteers and cultured for 24 h (Mortality analysis), or 4 h, 6 h, 11 h (Caspase-3 assay), or 5 h (ROS assay) on coated Iso ctrl (cross), chimeric anti-ChemR23 2G1 (square) or different humanized versions of the 2G1 (diamonds). Mortality of PMN was analyzed by incubating PMN with specific markers of the mortality and viability and then counted by picture analysis.\nPMN from healthy volunteers were incubated in culture medium with coated Ab at 10 μg/mL for 24 h or 5 h and stained either with a dead/viability kit (LIVE/DEAD (Invitrogen)) or a specific marker of reactive oxygen species (ROS) respectively. The percentages of positive cells were obtained by analyzing the pictures with ImageJ software."}, "[4]": {"system": "neutrophils and macrophages in exudates", "assay": "in vivo neutrophils apoptosis (sterile air and carrageenan, exudates)", "protocol": "FIG. 27—in vivo neutrophils apoptosis —A) Experimental proceedings—B) ChemR23 expression C) neutrophils frequency in exudates D) macrophages frequency in exudates G) neutrophils mortality F) Ratio dead/living neutrophils.\nSterile air was injected two times at d3 and d6 and inflammation was initiated with the injection of carrageenan. Exudates were collected at different times and stained for flow cytometry analysis."}}, "data": [{"molecule": "B1", "values": [{"measurement": "percentage of weight loss", "setting": "[1]; 25 μg/injection i.p., 3 times a week for 2 weeks, FIG. 4A", "value": "lost less weight"}, {"measurement": "score stool", "setting": "[1]; FIG. 4B", "value": "better score stool"}, {"measurement": "tumor development", "setting": "CT26 cells", "value": "did not demonstrate a clinical effect on the tumor development"}, {"measurement": "tumor growth", "setting": "MC38 cells", "value": "did show an efficacy in the inhibition of the tumor growth"}, {"measurement": "Chemerin-induced inhibition of forskolin-dependent cAMP production", "setting": "[2]", "value": "could not revert this inhibition of production"}, {"measurement": "tumor growth (tumor area)", "setting": "4T1 cells; 10 μg/injection at day 4 and day 7, vs isotype control, FIG. 8A", "value": "did not show any improvement"}, {"measurement": "lung metastasis by bioluminescence imaging", "setting": "4T1 cells; 0.8 mg/kg three times a week for three weeks, vs control antibody, FIG. 8B", "value": "reduces the lung metastasis"}, {"measurement": "lymph node metastasis", "setting": "4T1 cells; two animals in the control have metastasis, data not shown", "value": "no animals treated with the anti-CMKLR1 compound has metastasis"}, {"measurement": "ROS production by PMN", "setting": "[3]", "value": "increase the ROS production"}, {"measurement": "percentage of neutrophils in exudates", "setting": "[4]; FIG. 27C", "value": "not significantly decreased"}, {"measurement": "overall percentage of macrophages in exudates", "setting": "[4]; FIG. 27D", "value": "slightly enhanced"}, {"measurement": "percentage of dead neutrophils", "setting": "[4]; FIG. 27E and FIG. 27F", "value": "increased"}]}]}
